We go through 73 sequences from the supplement of paper PMC10567573.

± gives the standard deviation.

This data set can be described thus: protein stability index of a GFP-peptide fusion (GPS, HEK-293T) (PSI 1-6); higher = more stable. Particulars: c terminus: a fixed tail appended.
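Further: 24-mer peptide tiles fused after GFP, lentivirally expressed, FACS-sorted into six equal bins by GFP/DsRed ratio, decoded by Illumina sequencing, PSI is the read-weighted mean bin number.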

Take RSPSGSLRSARGSRGGTRGWLPSH [RBMY1A1]: the protein stability index runs as follows: (treatment: DMSO) 3.95 ± 0.18; (treatment: MLN4924 1 uM, 8 h) 4.07 ± 0.17.
The matching figures for RSYIKLFQAPCQRCGKFLQDGLPP [MED27]: 2.19 ± 0.17 and 2 ± 0.1.
On to RTIVKGYNENVYTEDGKLDIWSKS [MED27], for which the protein stability index reads like this: (treatment: DMSO) 3.84 ± 0.35; (treatment: MLN4924 1 uM, 8 h) 3.91 ± 0.3.
The corresponding values for RTMLDFPQHVSSDKEVRAASTEAD [NLN] are 5.55 ± 0.23 and 4.74 ± 1.4.
The matching figures for RTPEILKKALSGLSSRWKNWWIRG [CDS1]: 2.49 ± 0.86 and 2.26 ± 0.73.
The matching figures for RTPSAFPQTPAAPPATLGEGSADT [EHMT1]: 5.3 ± 0.21 and 5.25 ± 0.12.
On to RVGQWVRMENVTVLGEDVIVNDEL [GMPPB], for which the protein stability index worked out at 4.01 ± 0.066 (treatment: DMSO) and 4.07 ± 0.24 (treatment: MLN4924 1 uM, 8 h).
For the sequence RVLRGRPGAGSRRRGRMALCGQAA [FBXO33], the protein stability index by setting is: (treatment: DMSO) 4 ± 0.18; (treatment: MLN4924 1 uM, 8 h) 4.74 ± 0.22.
RVQGVLRGRAREREQLQAEASERF [HES6]: the protein stability index by setting is: (treatment: DMSO) 4.39 ± 0.32; (treatment: MLN4924 1 uM, 8 h) 4.48 ± 0.25.
The corresponding values for RVVSWLVSAEGSHPDPAPFCADNP [DVL3] are 2.35 ± 0.3 and 2.58 ± 0.24.
The corresponding values for RWCCCCGERETRTPEELTILGETQ [CLCN6] are 3.76 ± 0.27 and 3.79 ± 0.18.
The sequence RYLVGEHQADLEVANRHGHTCLMI [FEM1A] had a protein stability index (treatment: DMSO) of 2.19 ± 0.42 and a protein stability index (treatment: MLN4924 1 uM, 8 h) of 2.38 ± 0.24.
Regarding SAGSPPELQGLPELHEECEGNHPS [NET1], the protein stability index by setting is: (treatment: DMSO) 5.46 ± 0.17; (treatment: MLN4924 1 uM, 8 h) 5.56 ± 0.16.
SAKTRQRVEDAFYTLVREIRQYRL [KRAS] displayed a protein stability index (treatment: MLN4924 1 uM, 8 h) of 2.31 ± 0.4.
As to SASSIKQILLEWCRSKTLGYQHVD [SMTNL2], the protein stability index runs as follows: (treatment: DMSO) 2.22 ± 0.19; (treatment: MLN4924 1 uM, 8 h) 2.42 ± 0.35.
The corresponding values for SAVARSNSWMGSQGPMSQRRENYG [RBMY1A1] are 3.68 ± 0.43 and 3.96 ± 0.5.
The matching figures for SCIGNKQKAVKSCLVCQASFCELH [TRIM29]: 3.51 ± 0.16 and 3.79 ± 0.34.
The corresponding values for SDTTPLPSWAALNSSTWGSLKQAL [SNX8] are 2.7 ± 0.2 and 2.94 ± 0.12.
For SEDLDGHSDPEESFARDLPDFPSI [RETREG3], the protein stability index worked out at 5.33 ± 0.2 (treatment: DMSO) and 5.13 ± 0.45 (treatment: MLN4924 1 uM, 8 h).
The matching figures for SEEALRADGFGDNPFYHCLVAEIL [SAT2]: 3.08 ± 0.24 and 3.26 ± 0.25.
SEEMIAEFKAAFDMFDADGGGDIS [TNNC2]: the protein stability index reads like this: (treatment: DMSO) 5.16 ± 0.32; (treatment: MLN4924 1 uM, 8 h) 5.11 ± 0.43.
As for SEEQVSKNLFGPPLESAFDHEDFT [FCHO1], the protein stability index was 5.22 ± 0.4 (treatment: DMSO) and 5.26 ± 0.21 (treatment: MLN4924 1 uM, 8 h).
As for SEREANDALNAYVCKGLPQHEEIC [INTS3], the protein stability index (treatment: DMSO) was found to be 4.56 ± 0.23 and the protein stability index (treatment: MLN4924 1 uM, 8 h) stood at 4.52 ± 0.25.
On to SFFYPVLFVLFMFFGMAFNFIVND [SOAT1], for which the protein stability index reads like this: (treatment: DMSO) 2 ± 0.2; (treatment: MLN4924 1 uM, 8 h) 1.96 ± 0.32.
The corresponding values for SFSEETEKKFEHFSGLLNNQLSPQ [LOXL2] are 4.09 ± 0.47 and 4.56 ± 0.18.
The corresponding values for SFSNYRPFEPQALGLSPSWRLTGF [SEPHS2] are 1.95 ± 0.2 and 2.01 ± 0.42.
The corresponding values for SFVYVNPEDGRIFAQRTFDYELLQ [PCDHGC5] are 2.2 ± 0.26 and 2.56 ± 0.28.
Turning to SGETWNPLKLHYQLRNVRERLAKN [GOLPH3], the protein stability index by setting is: (treatment: DMSO) 2.87 ± 0.54; (treatment: MLN4924 1 uM, 8 h) 3.03 ± 0.21.
The corresponding values for SGKELKIDIIPNPQERTLTLVDTG [HSP90AB1] are 3.98 ± 0.42 and 3.58 ± 0.48.
The matching figures for SGTMGAAKVTGEVLDILTRLPESV [FLOT1]: 3.64 ± 0.38 and 3.71 ± 0.24.
The corresponding values for SHSKAPSGSQMSHNAVTSHQRPGW [NCF4] are 3.88 ± 0.23 and 4.05 ± 0.22.
With SINQRLNKRERSKLKNLRRKQRRR [RNF180], the protein stability index is, setting by setting: (treatment: DMSO) 3.9 ± 0.14; (treatment: MLN4924 1 uM, 8 h) 3.93 ± 0.24.
Regarding SKFRRKDREDSPERCSDSDEEKKA [CLINT1], the protein stability index reads like this: (treatment: DMSO) 5.43 ± 0.27; (treatment: MLN4924 1 uM, 8 h) 5.47 ± 0.14.
On to SKLAQLTLEQILEHLDNLRLNLTN [INTS3], for which the protein stability index worked out at 2.3 ± 0.39 (treatment: DMSO) and 2.2 ± 0.21 (treatment: MLN4924 1 uM, 8 h).
Consider SKSNLGWTPLHLACYFGHRQVVQD [OSBPL1A], for which the protein stability index was determined as 2.62 ± 0.6 (treatment: DMSO) and 2.12 ± 0.55 (treatment: MLN4924 1 uM, 8 h).
The corresponding values for SKYLLEEWFQNCYARYHQAFADRD [TEKT4] are 2.48 ± 0.24 and 2.15 ± 0.25.
The corresponding values for SLAAFSVISVVSYLILALLSVTIS [RTN3] are 3.41 ± 0.21 and 2.8 ± 0.19.
The corresponding values for SLAEVRVGYQSQNISCFFRLVDRD [MYORG] are 2.42 ± 0.24 and 2.45 ± 0.26.
With SLEISPQNVDVNVHPTKHEVHFLH [MLH1], the protein stability index reads like this: (treatment: DMSO) 3.46 ± 0.23; (treatment: MLN4924 1 uM, 8 h) 3.63 ± 0.32.
The corresponding values for SLESEEEEYPGITAEDSNDIYILP [BCL2L13] are 5.06 ± 0.22 and 5.05 ± 0.23.
The corresponding values for SLFKLKPLSNKTATDDTGGKDPRN [PLD5] are 4.44 ± 0.54 and 4.65 ± 0.11.
For the sequence SLGQLPLPPIPHVFSAGTGSAILP [PLAGL1], the protein stability index was found to be 2.82 ± 0.28 (treatment: DMSO) and 3.07 ± 0.22 (treatment: MLN4924 1 uM, 8 h).
The corresponding values for SLIPPRSEQLVNFTGKAEMGGPFS [TMEM106C] are 3.65 ± 0.34 and 3.47 ± 0.3.
Turning to SLKKGSLVKNLKDTLGLGKTRRKT [NCK2], the protein stability index is, setting by setting: (treatment: DMSO) 3.96 ± 0.18; (treatment: MLN4924 1 uM, 8 h) 3.81 ± 0.31.
SLKLKSSHHSKHKAPSKLGLIISG [DLC1]: the protein stability index runs as follows: (treatment: DMSO) 2.66 ± 0.072; (treatment: MLN4924 1 uM, 8 h) 2.77 ± 0.55.
The matching figures for SLKQALKGLSVEFALLADKAAQQG [SNX8]: 2.32 ± 0.18 and 2.52 ± 0.31.
The corresponding values for SLLVLIEPVAAGSGIPEVKCYLNG [CLCN6] are 1.99 ± 0.92 and 2.44 ± 0.43.
The matching figures for SLQRWEHLKKVASRYQNNIKNDKY [PRIM1]: 2.47 ± 0.25 and 2.91 ± 0.56.
As to SLQSTGKCLLYCNGVLEPLYLCPN [SLC25A39], the protein stability index reads like this: (treatment: DMSO) 2.03 ± 0.34; (treatment: MLN4924 1 uM, 8 h) 2.21 ± 0.5.
The matching figures for SLRLWDTFGDHHKDRRFAYGRSDV [RHOBTB1]: 2.87 ± 0.38 and 2.92 ± 0.24.
Consider SMSSRLSIYDNVPGSILYSSSGDL [DLC1], for which the protein stability index is, setting by setting: (treatment: DMSO) 3.24 ± 0.089; (treatment: MLN4924 1 uM, 8 h) 3.13 ± 0.22.
The corresponding values for SNHVDDFTTFRGTELSFLVTTHQP [EDNRA] are 2.61 ± 0.4 and 2.8 ± 0.4.
The corresponding values for SNSLAIAILMKAYQRFRQKSKASF [PTGFR] are 2.1 ± 0.25 and 2.23 ± 0.19.
The matching figures for SPDSPKGSSETETEPPVALAPGPA [ESRRA]: 5.56 ± 0.31 and 5.63 ± 0.12.
SPEARDARSPSGPSGSLENGTKAD [TRIM29]: the protein stability index reads like this: (treatment: DMSO) 5.36 ± 0.44; (treatment: MLN4924 1 uM, 8 h) 5.61 ± 0.18.
Take SPQSGSILTEETEVKGTLEGDVCG [PBXIP1]: the protein stability index (treatment: DMSO) amounted to 5.59 ± 0.11 and the protein stability index (treatment: MLN4924 1 uM, 8 h) was 5.33 ± 0.35.
For SQEAGLPAGAGPSPTFPALGIGMD [SEPHS2], the protein stability index was determined as 4.64 ± 0.22 (treatment: DMSO) and 4.65 ± 0.25 (treatment: MLN4924 1 uM, 8 h).
The corresponding values for SQEEGKSALEDQGSNPSSSNSSQD [PPFIA4] are 5.67 ± 0.16 and 5.62 ± 0.28.
Regarding SQELPPPDPGPSPEASHLRFRRFR [ZNF263], the protein stability index was 4.76 ± 0.21 (treatment: DMSO) and 5.14 ± 0.12 (treatment: MLN4924 1 uM, 8 h).
The corresponding values for SQGEVEKLIKCDEIQVDSEEPVFE [KLHL12] are 5.23 ± 0.4 and 5.47 ± 0.25.
The matching figures for SQPPKKKPKTTNIELQGVPNDEVH [RBBP5]: 5.32 ± 0.2 and 5.28 ± 0.14.
Regarding SRHLNSQVKKTTTRWCHIVRDSDS [PHTF1], the protein stability index was 2.33 ± 0.54 (treatment: DMSO) and 3.15 ± 0.66 (treatment: MLN4924 1 uM, 8 h).
The corresponding values for SRLWDSRLRHYLGSRYDARRGVSD [DNAAF3] are 3.09 ± 0.33 and 3.23 ± 0.18.
The matching figures for SSCCLHICQGIRGLWGTTLTENTA [PKD2L1]: 2.07 ± 0.21 and 1.97 ± 0.24.
The matching figures for SSDMMDSSSFSNLDLSEEDSDDPS [VDR]: 5.66 ± 0.25 and 5.63 ± 0.26.
Turning to SSEDYRQLELVILQSEPHRAGVQW [KCNK9], the protein stability index was 2.41 ± 0.19 (treatment: DMSO) and 2.38 ± 0.29 (treatment: MLN4924 1 uM, 8 h).
The matching figures for SSENFDDYMKEVGVGFATRKVAGM [FABP4]: 3.27 ± 0.1 and 3.55 ± 0.3.
With SSGAGSSPPAAPCPPPPGPAAAPE [ZBED3], the protein stability index worked out at 5.36 ± 0.24 (treatment: DMSO) and 5.35 ± 0.085 (treatment: MLN4924 1 uM, 8 h).
The matching figures for SSGEDDDFKSCPQGPQGREGLAFL [PWWP2B]: 4.75 ± 0.23 and 4.85 ± 0.18.
The matching figures for SSGQCRRRKRTYWNDSCGEDMEAS [WEE1]: 4.18 ± 0.43 and 4.52 ± 0.43.
The corresponding values for SSTTGLFYSAEIICAIEYLHSKEI [PRKX] are 3.13 ± 0.61 and 3.33 ± 1.
SVIKNYEDHFPLLFSEASECMLLV [MAGEA10]: the protein stability index runs as follows: (treatment: DMSO) 3.3 ± 0.74; (treatment: MLN4924 1 uM, 8 h) 2.33 ± 0.046.
On to SVNDQCGFGVLRLDADAAQRVVYL [TSPAN10], for which the protein stability index by setting is: (treatment: DMSO) 2.32 ± 0.27; (treatment: MLN4924 1 uM, 8 h) 2.28 ± 0.23.
